Earlier results in paper PMC2949527.

Target: RFX5(25-90)2·RFXAP(214-272) complex 25-90 + 214-272 (Homo sapiens) (UniProt P48382)
Sequence (P48382 2-616, chain 1 of 2): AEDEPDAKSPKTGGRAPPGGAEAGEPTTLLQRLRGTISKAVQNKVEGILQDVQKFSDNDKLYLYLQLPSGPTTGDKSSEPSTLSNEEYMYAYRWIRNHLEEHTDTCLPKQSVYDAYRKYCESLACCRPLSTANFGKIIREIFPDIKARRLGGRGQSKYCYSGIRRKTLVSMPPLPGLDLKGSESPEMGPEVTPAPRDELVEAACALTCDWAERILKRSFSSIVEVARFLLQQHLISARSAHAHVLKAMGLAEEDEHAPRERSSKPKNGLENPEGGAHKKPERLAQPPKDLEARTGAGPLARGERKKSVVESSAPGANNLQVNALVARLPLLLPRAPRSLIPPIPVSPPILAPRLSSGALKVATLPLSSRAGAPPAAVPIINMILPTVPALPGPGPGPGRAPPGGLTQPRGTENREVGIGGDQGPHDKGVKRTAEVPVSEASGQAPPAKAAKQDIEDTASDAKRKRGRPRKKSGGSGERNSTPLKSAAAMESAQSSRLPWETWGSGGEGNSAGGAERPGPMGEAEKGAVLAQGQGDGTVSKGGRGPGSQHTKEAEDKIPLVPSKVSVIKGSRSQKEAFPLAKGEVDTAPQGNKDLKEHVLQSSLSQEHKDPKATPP
Sequence (O00287 whole entry, chain 2 of 2, further chain): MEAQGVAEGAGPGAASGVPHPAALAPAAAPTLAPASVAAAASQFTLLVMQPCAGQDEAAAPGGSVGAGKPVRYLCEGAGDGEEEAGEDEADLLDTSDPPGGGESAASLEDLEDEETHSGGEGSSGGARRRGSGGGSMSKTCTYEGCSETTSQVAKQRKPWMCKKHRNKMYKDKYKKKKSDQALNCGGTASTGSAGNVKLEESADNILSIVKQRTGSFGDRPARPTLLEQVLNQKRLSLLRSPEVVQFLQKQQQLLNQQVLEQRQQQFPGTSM

Sequence of RFXB (O14593 whole entry): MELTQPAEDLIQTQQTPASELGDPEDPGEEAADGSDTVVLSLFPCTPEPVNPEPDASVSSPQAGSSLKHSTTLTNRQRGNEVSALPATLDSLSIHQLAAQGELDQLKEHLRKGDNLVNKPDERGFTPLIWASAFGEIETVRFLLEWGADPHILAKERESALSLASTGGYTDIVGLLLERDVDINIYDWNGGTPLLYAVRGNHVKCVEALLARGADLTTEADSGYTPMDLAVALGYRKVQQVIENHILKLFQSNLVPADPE

Substance: RFXB (from UniProt O14593)
- Kd: 76 nM
